Data set [1] has as its target T1, Kunitz trypsin inhibitor from soybeans (UniProt P01070).
T1 sequence: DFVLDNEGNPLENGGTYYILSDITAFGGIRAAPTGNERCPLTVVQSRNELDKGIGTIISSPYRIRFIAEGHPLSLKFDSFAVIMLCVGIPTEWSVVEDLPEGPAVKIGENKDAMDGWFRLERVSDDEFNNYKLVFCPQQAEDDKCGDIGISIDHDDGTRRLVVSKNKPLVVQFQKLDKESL

Data set [2] deals with Kunitz trypsin inhibitor from soybeans (soybean) (UniProt P01070). Nature of the data set: cell-based or functional assay.
For data set [3], the target named is T2, Kunitz trypsin inhibitor from soybeans, P01070.
T2 chain: T1 sequence

This is an account of results in patent publication US20050064403A1.

Bromelain yielded a Remaining TI activity (%) in data set [1] of 30%.

Take Albumin (control): the Remaining TI activity (%) in data set [2] worked out at 100%.

B1: cysteine proteinase encoded by Aspergillus niger gene nr 28 (protein)
chain: MSKLSAAISKLSLSTIATTLLLLTPPTTAYFYKYPALFVYKDTNCTDISFSLVYPSLGNCNGGYYDYAGSFQMFNIDAAYTCNGSDSTLMFEMYNSSGSDCGDESDLLFRQPVTEECTVADVESPGPLEMPVWFELGSLLGNCGGMAGTMLFGVGILEGGLETKLYWKCYSSRLNTSVTVHRLSLILSMGCTSVSDSYNELAAAHYYEDL
Molecule B1 yielded a Remaining TI activity (%) in data set [3] of 26%.

B2: Papain (protein)
chain: IPEYVDWRQKGAVTPVKNQGSCGSCWAFSAVVTIEGIIKIRTGNLNEYSEQELLDCDRRSYGCNGGYPWSALQLVAQYGIHYRNTYPYEGVQRYCRSREKGPYAAKTDGVRQVQPYNEGALLYSIANQPVSVVLEAAGKDFQLYRGGIFVGPCGNKVDHAVAAVGYGPNYILIKNSWGTGWGENGYIRIKRGTGNSYGVCGLYTSSFYPVKN
Turning to B2, the Remaining TI activity (%) in data set [3] came to 25%.
